Like-named read-outs stand apart in the source and are kept apart here.
Columns and labels:
[1] = target: human norovirus GII.4 Saga P-domain (native, Asn373) (human norovirus GII.4 Saga); assay: native MS
[2] = target: human norovirus GII.4 Saga P-domain, fully deamidated at position 373 (iso-aspartate) (human norovirus GII.4 Saga)
[3] = target: murine norovirus (MNV) CR10 P-domain (murine norovirus, strain CR10) (UniProt Q80J94); assay: native MS
Q80J94 = assay: SEC
[4] = target: murine norovirus (MNV) CW1 P-domain (murine norovirus, strain CW1) (UniProt Q80J94); assay: NMR titration
[5] = target: murine norovirus (MNV) CW1 P-domain (murine norovirus, strain CW1) (UniProt Q80J94); assay: SEC
[6] = target: murine norovirus (MNV) CW1 P-domain (murine norovirus, strain CW1) (UniProt Q80J94); assay: NMR titration; remark: listed apart in the source
[7] = target: murine norovirus (MNV) CW1 P-domain (murine norovirus, strain CW1) (UniProt Q80J94); assay: SEC; remark: listed apart in the source

Substance: human norovirus GII.4 Saga P-domain (native, Asn373) (domain or fragment)
- stoichiometry N [1]: 2

Substance: human norovirus GII.4 Saga P-domain point mutant N373Q (domain or fragment)
- koff [2]: 1.5e-06 s⁻¹

Substance: murine norovirus (MNV) CR10 P-domain (from UniProt Q80J94 229-531) (domain or fragment)
- Kd [3]: 32 µM
- stoichiometry N [3]: 2

Substance: murine norovirus (MNV) CW1 P-domain
- kex (printed as dissociation rate constant kex, from SEC peak tailing) (Q80J94): 0.03 s⁻¹

Substance: murine norovirus (MNV) CW1 P-domain (from UniProt Q80J94 225-541) (domain or fragment)
- Kd [4]: 31 µM
- dimer half-life t1/2 [4]: 17 s
- Kd [5]: 40 µM
- stoichiometry N [5]: 2
- Kd [6]: 12.5 µM
- koff [6]: 0.035 s⁻¹
- kon [6]: 2800 M⁻¹ s⁻¹
- stoichiometry N [7]: 2
